# According to patent publication US20140303084A1 (Biogen, published 2014):
# Bridge positions count the residues as written; N and C are the ends. Square brackets hold non-standard residues; d marks the D form. Ends that are not written are not given here. (PEG)4 = polyethylene glycol, 4 units; Dap = NC[C@H](N)C(=O)O
# B1: KLTCLA-Dpr-YCWLF (peptide)
# peptide: KLTCLA[Dap]YCWLF
# modifications: not fully specified; printed as KLTCLA-Dpr-YCWLF; cysteine pairing not given here
# B2: KLTCLASYC-Nal-LF (peptide)
# peptide: KLTCLASYC[Nal]LF
# modifications: not fully specified; printed as KLTCLASYC-Nal-LF; cysteine pairing not given here
# B3: Dpr-LTCLASYCWLF (peptide)
# peptide: [Dap]LTCLASYCWLF
# modifications: not fully specified; printed as Dpr-LTCLASYCWLF; cysteine pairing not given here
# Molecular target: human Factor IXa (human, UniProt P00740 47-191; P00740 227-461)
# Assay: cell-based or functional assay
row,Binder,"EC50 [µM], FXa generation assay"
1,KLTCLASYCWYF,< 0.5 µM
2,NLTGRASYGWLP,> 20 µM
3,KEGFAQLPCLVCQGGLFSPRAI,> 20 µM
4,B1,> 20 µM
5,AQTRVARCCQLF,> 20 µM
6,KLTCLASYCWLF-OH (disulfide 4-9 (inferred)) [KLTCLASYCWLF-COOH],> 1 µM
7,KLTCLASYCWLF (Lys(Me)2 1) [Lys(Me)2-LTCLASYCWLF],> 1 µM
8,KLTCLASYCWXF (not fully specified; Nle 11) [KLTCLASYCW-Nle-F],< 0.5 µM
9,GASSDKLTCRTRHCSMFQPLSV,> 20 µM
10,{(PEG)27-(PEG)27}-KLTCLASYCWLF (cysteine pairing not given here) [(PEG)27(PEG)27-KLTCLASYCWLF],> 1 µM
11,VQRSTQLTCLYGGCRLFGWNYH,> 20 µM
12,KLTCLASYCWLF (Lys(Me3CI) 1) [Lys(Me3CI)-LTCLASYCWLF],> 1 µM
13,KLTCLASYCQLV,< 0.5 µM
14,QLTCLASYCGGV,> 20 µM
15,VAHYGKVTCLASYCQPLPSVGA,> 20 µM
16,LQELTKLTCLARSGWLVCNPGY,> 20 µM
17,TLTCRASYCQLF,> 1 µM
18,SISGQQLTCRASHCWLNLPWHS,> 20 µM
19,B2,< 0.5 µM
20,KLTCLASQCWLF,< 0.5 µM
21,LRTQPKVTGLASCSGLVNCSRD,> 20 µM
22,KLTCLXSYCWLF (not fully specified; Aib 6) [KLTCL-Aib-SYCWLF],> 20 µM

row,Binder,"EC50 [µM], FXa generation assay"
1,WVPQWKVTCLASCSRLFHGFDA,> 5 µM
2,GCSSDKLTARTRHCSMFQPLSV,> 20 µM
3,DSRSAKRKCLASYCWLFGIGQA,> 20 µM
4,TLDSKNLQCLGSSCWLFSSGLS,> 20 µM
5,KLTCLASYCWLF-{(PEG)4-NH2} (cysteine pairing not given here) [KLTCLASYCWLF-(PEG)4-CONH2],> 1 µM
6,KLTCLASYCWLK,> 100 µM
7,KLTCLASKCWLF,> 100 µM
8,EQTCLASYCWLF,> 20 µM
9,RCAQSRLPWLVSYCWLFSPYGM,> 5 µM
10,VGEHRKISCVASNCQLLRSGLA,> 20 µM
11,SLADTQLTWLARQYWLSVSEGS,> 20 µM
12,GAQLDKETCLASYCQLFSTVRR,> 20 µM
13,SCVKHELKCLSSDSRLFSAVQR,> 20 µM
14,KLTCLGSYCWLF,> 1 µM
15,NPTCQASYCQLF,> 20 µM
16,MAGMLKLTCFASYCGLFPLVSS,< 0.5 µM
17,KLTCLXSYCWLF (not fully specified; Dpr 6) [KLTCL-Dpr-SYCWLF],> 1 µM
18,KGRCLTSHCWLF,> 20 µM
19,KLTCLSSYCWLF,> 1 µM
20,KLSCQAGQCWVF,> 1 µM
21,{(PEG)27}-KLTCLASYCWLF (cysteine pairing not given here) [(PEG)27-KLTCLASYCWLF],> 1 µM
22,ERYRLDMTCMASQCWQFPPAAG,< 0.5 µM

row,Binder,"EC50 [µM], FXa generation assay"
1,KLTCRASYCQLF,> 1 µM
2,RRCPGKLQALASYCWLFWTGIA,> 1 µM
3,Ac-KLTCLASYCWLF (not fully specified; cysteine pairing not given here) [Ac-KLTCLASYCWLF],> 1 µM
4,KLTCLAXYCWLF (not fully specified; HSe 7) [KLTCLA-HSe-YCWLF],> 1 µM
5,QLTCLASYCWLF,> 20 µM
6,KLTCLATYCWLF,> 1 µM
7,GSCRDQLTCLSSDRWQFFRRVS,> 20 µM
8,MEGTRQPTCLASYCSPFQYVAP,> 20 µM
9,MLTCIASYCQLG,> 20 µM
10,KLKCLSSECQLL,> 20 µM
11,QQTCQASQCQLF,> 20 µM
12,KLTCLXSYCWLF (not fully specified; Abu 6) [KLTCL-Abu-SYCWLF],> 1 µM
13,B3,> 1 µM
14,KLTCQASYCWLF,> 1 µM
15,QLTCLASECGLS,> 20 µM
16,QLPCLASYCGLF,> 20 µM
17,XLTCLASYCWLF (not fully specified; Orn 1) [Orn-LTCLASYCWLF],< 0.5 µM
18,RPGGGKVTCQASYCWPFLARAG,> 20 µM
19,KKTCVASFCQMI,> 5 µM
20,KLTCLKSYCWLF,> 1 µM
